According to EP4628892A1 (Korea Research Institute of Bioscience and Biotechnology, dated 2025):

Biological target: T1, hNgR1-his (human, UniProt Q9BZR6 27-447, limits assumed)
T1 construct: Soluble antigen flowed over antibodies captured on Protein A chips; also called antigen protein (hNgR1-his); the antigen; not shown: histidine tag
T1 sequence (looked up): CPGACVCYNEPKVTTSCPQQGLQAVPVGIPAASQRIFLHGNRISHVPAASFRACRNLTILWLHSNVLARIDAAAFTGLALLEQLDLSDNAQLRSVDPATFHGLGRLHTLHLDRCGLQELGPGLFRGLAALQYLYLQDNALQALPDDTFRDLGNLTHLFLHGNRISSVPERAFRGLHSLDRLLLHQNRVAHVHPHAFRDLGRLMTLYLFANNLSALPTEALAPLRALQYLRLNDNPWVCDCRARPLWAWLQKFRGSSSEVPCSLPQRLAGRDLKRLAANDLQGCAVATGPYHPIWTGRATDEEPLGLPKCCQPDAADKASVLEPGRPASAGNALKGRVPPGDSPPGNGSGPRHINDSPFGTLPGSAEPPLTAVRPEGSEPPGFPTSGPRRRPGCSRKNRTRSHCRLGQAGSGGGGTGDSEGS
Test: SPR, Biacore T200; IgG1 captured on Protein A chip, hNgR1-his flowed at different concentrations

B1: H6HE2L antibody (antibody, human IgG1, kappa, V domains shown)
VH: QMQLVQSGGGLEQPGRSLRLSCVTSGFNFNDYAMHWVRQAPGKGLEWVSGISWNSGAIGYADSVKGRFTVSRDNSKNSLYLQMNSLRAEDTAVYYCARDYNYETSGYYHGFDNWGQGTLVTVSS
VL: DIQMTQSPSSVSASVGDRVTITCRASQGISRWLSWYQQKPGKAPKLLIYAASNLQSGVPLRFSGSGSGTDFTLTINSLQPEDSATYYCQQTNNFPYTFGQGTKVEIKR
notes: Optimized from CSA108
Kd: 1.69 nM

B2: CSA123 antibody (antibody, human IgG1, kappa, V domains shown)
VH: QMQLVQSGAEVKKPGASVKVSCKVSGYTLSELSIHWVRQAPGKGLEWMGGFDPEDDETVYAQKFQGRVTLTDDTSTDTAYMELSSLRSEDTAVYYCARDLGYLTSGNYYDAFDIWGRGTMITVSS
VL: DIQMTQSPSSVSASVGDRVTITCRASQDINRWLAWYQQKPGKAPKLLIYAASRLQSGVPLRFSGSGSGTDFTLTINSLQPEDSATYYCQQTNNFPRTFGQGTRLEIKR
notes: also called anti-NgR1 antibody CSA123
Kd: 31.5 nM

B3: G8 antibody (antibody, human IgG1, kappa, V domains shown)
VH: QMQLVQSGAEVKKPGASVKVSCKVSGYPLSELSIHWVRQAPGKGLEWMGGFDSEDDETVYAQKFQGRVTLTDDTSTDTAYMELSSLRSEDTAVYYCARDLGYLTSGNYYDAFGIWGRGTMITVSS
VL: DIQMTQSPSSVSASVGDRVTITCRASQDINRWLAWYQQKPGKAPKLLIYAASRLQSGVPLRFSGSGSGTDFTLTINSLQPEDSATYYCQQTNNFPRTFGQGTRLEIKR
notes: Optimized from CSA123
Kd: 4.15 nM

B4: S6 antibody (antibody, human IgG1, kappa, V domains shown)
VH: QMQLVQSGAEVKKPGASVKVSCKVSGYTLSGLSIHWVRQAPGKGLEWMGGFDSEDDETVYAQKFQGRVTLTDDTSTDTAYMELSSLRSEDTAVYYCARDLGYLTSGNYYDAFDIWGRGTMITVSS
VL: DIQMTQSPSSVSASVGDRVTITCRASQDINRWLAWYQQKPGKAPKLLIYAASRLQSGVPLRFSGSGSGTDFTLTINSLQPEDSATYYCQQTNNFPRTFGQGTRLEIKR
notes: Optimized from CSA123
Kd: 5.51 nM

B5: D11 antibody (antibody, human IgG1, kappa, V domains shown)
VH: QMQLVQSGAEVKKPGASVKVSCKVSGYTLSELSIHWVRQAPGKGLEWMGGFDSEDDETVYAQKFQGRVTLTDDTSTDTAYMELSSLRSEDTAVYYCARDLGYLTSGNYYDAFDFWGRGTMITVSS
VL: DIQMTQSPSSVSASVGDRVTITCRASQDINRWLAWYQQKPGKAPKLLIYAASRLQSGVPLRFSGSGSGTDFTLTINSLQPEDSATYYCQQTNNFPRTFGQGTRLEIKR
notes: Optimized from CSA123
Kd: 5.33 nM

B6: S3 antibody (antibody, human IgG1, kappa, V domains shown)
VH: QMQLVQSGAEVKKPGASVKVSCKVSGYTLSELSIHWVRQAPGKGLEWMGGFDPEDDETVYAQKFQGRVTLTDDTSTDTAYMELSSLRSEDTAVYYCARDLGYLTSGNYYNAFGIWGRGTMITVSS
VL: DIQMTQSPSSVSASVGDRVTITCRASQDINRWLAWYQQKPGKAPKLLIYAASRLQSGVPLRFSGSGSGTDFTLTINSLQPEDSATYYCQQTNNFPRTFGQGTRLEIKR
notes: Optimized from CSA123
Kd: 5.84 nM

B7: CSA108 antibody (antibody, human IgG1, kappa, V domains shown)
VH: QMQLVQSGGGLEQPGRSLRLSCVTSGFNFNDYAMHWVRQAPGKGLEWVSGISWNSGAIGYADSVKGRFTVSRDNSKNSLYLQMNSLRAEDTAVYYCARDYYYETSGYYYGFDNWGQGTLVTVSS
VL: DIQMTQSPSSVSASVGDRVTITCRASQGISRWLAWYQQKPGKAPKLLIYAASNLQSGVPLRFSGSGSGTDFTLTINSLQPEDSATYYCQQTNNFPYTFGQGTKVEIKR
notes: also called anti-NgR1 antibody CSA108
Kd: 23.3 nM

B8: C1HE2E6 antibody (antibody, human IgG1, kappa, V domains shown)
VH: QMQLVQSGGGLEQPGRSLRLSCVTSGFNFNDYAMHWVRQAPGKGLEWVSGISWNSGAIGYADSVKGRFTVSRDNSKNSLYLQMNSLRAEDTAVYYCARDYNYEISGYYYGFDNWGQGTLVTVSS
VL: DIQMTQSPSSVSASVGDRVTITCRASQGISRWLSWYQQKPGKAPKLLIYAASNLQSGVPLRFSGSGFGTDFTLTINSLQPEDSATYYCQQTNNFPYTFGQGTKVEIKR
notes: Optimized from CSA108
Kd: 0.194 nM
